Assay [1] deals with KV2.1 wild-type base construct (hKv2.1-m7-c3). Description: Alpha currents (Iα) of Kv2.1 WT base construct in Xenopus oocytes, two electrode voltage-clamp. The assay is classed as cell-based, human. Particulars: 1 nM AgTx2, WT. As for the experimental part: The coding cDNAs of KV2.1 “wild-type” (hereinafter WT) base construct (hKv2.1-m7-c3 is human Kv2.1, residues 1-858, mutated to confer AgTx2 sensitivity and to remove extracellular cysteine residues) was synthesized (Entelchon GmbH) and cloned into the high expression vector pBSTA.
Transcripted cRNA was produced using the mMessage mMachine kit (Ambion Inc.). Two to four days past injection of cRNA into stage V-VI Xenopus oocytes (NASCO) potassium currents through the alpha pore (Iα) were recorded with the two electrode voltage-clamp technique making use of a TURBO TEC-05× amplifier (npi electronic GmbH). Currents were filtered at 10 kHz and sampled at 20 kHz. The bath solution contained (in mM): NaCl 96, KCl 2, CaCl2 1, MgCl2 1 and HEPES 5 (pH 7.5). Voltage-recording and current-injecting microelectrodes were filled with 3 M KCl and pulled to have resistances between 0.2 and 1 MΩ (see Stork et al., 2007). The pClamp software package v.10.1 (Molecular Devices, Inc.) was used for data acquisition and analysis.
For recording of alpha currents (Iα), 100 ms pulses were applied from ˜60 to +60 mV in 10 mV steps at 1 Hz from a holding potential of ˜80 mV to the Kv2.1 channel constructs to measure alpha currents (Iα). Passive leak currents were subtracted online using a P/4 procedure: pClamp software generates a series of scaled-down replica sweeps of the main stimulus waveform. […]
On the technique in general: Two-electrode voltage clamp holds a large cell at a set potential and records current.

Assay [2] has as its target Kv1.1 (Homo sapiens, UniProt Q09470). The note with it: Table 5; read-out: IC50, channel Kv1.1; cited from earlier work.
For assay [3], the target named is Kv1.2 (Homo sapiens, UniProt P16389). The note with it: Table 5; result in words; cited from earlier work.
Sequence of Kv1.2 (P16389 whole entry): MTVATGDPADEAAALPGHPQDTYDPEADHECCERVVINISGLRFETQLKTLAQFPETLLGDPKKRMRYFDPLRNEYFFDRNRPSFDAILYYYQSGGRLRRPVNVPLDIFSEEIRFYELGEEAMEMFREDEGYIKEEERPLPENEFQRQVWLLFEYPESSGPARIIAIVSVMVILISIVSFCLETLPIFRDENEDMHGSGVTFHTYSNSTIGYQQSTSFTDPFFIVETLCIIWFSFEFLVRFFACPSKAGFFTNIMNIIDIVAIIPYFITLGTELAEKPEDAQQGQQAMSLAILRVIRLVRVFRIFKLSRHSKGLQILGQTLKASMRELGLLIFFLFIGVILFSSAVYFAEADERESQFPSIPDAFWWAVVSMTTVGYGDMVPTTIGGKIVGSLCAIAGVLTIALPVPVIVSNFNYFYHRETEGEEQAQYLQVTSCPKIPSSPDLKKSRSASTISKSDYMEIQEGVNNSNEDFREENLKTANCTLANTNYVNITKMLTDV
For assay [4], the target named is T1, Kv2.2 (Homo sapiens, UniProt Q92953).
T1 sequence (Q92953 1-911): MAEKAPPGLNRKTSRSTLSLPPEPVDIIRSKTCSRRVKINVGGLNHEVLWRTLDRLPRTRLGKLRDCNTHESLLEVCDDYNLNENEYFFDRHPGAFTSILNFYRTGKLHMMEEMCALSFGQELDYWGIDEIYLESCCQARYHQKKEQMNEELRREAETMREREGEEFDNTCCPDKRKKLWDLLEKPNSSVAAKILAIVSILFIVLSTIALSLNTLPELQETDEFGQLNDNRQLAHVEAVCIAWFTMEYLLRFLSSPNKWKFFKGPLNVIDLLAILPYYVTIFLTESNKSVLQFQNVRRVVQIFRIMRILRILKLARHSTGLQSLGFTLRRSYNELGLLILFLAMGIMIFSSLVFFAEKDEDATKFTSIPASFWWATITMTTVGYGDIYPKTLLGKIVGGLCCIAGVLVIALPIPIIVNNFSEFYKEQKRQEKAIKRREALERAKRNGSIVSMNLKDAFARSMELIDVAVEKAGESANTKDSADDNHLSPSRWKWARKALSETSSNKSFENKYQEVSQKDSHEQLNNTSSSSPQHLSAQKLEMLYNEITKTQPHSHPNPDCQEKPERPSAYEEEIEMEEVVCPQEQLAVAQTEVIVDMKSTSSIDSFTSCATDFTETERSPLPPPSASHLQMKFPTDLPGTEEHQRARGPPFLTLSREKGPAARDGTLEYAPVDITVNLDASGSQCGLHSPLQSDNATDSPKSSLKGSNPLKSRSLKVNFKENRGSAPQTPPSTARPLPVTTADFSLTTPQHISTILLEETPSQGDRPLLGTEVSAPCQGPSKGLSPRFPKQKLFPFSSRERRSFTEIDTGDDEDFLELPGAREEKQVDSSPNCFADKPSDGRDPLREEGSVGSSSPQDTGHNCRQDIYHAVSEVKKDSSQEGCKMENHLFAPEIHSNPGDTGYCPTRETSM
The note with it: Table 5; read-out: IC50, channel Kv2.2; cited from earlier work.

Assay [5] has as its target T2, Kv2.1 channel in pancreatic β-cells (Homo sapiens, UniProt Q14721).
T2 construct: host or cells: pancreatic β-cells (endogenous channel)
T2 sequence (Q14721 1-858): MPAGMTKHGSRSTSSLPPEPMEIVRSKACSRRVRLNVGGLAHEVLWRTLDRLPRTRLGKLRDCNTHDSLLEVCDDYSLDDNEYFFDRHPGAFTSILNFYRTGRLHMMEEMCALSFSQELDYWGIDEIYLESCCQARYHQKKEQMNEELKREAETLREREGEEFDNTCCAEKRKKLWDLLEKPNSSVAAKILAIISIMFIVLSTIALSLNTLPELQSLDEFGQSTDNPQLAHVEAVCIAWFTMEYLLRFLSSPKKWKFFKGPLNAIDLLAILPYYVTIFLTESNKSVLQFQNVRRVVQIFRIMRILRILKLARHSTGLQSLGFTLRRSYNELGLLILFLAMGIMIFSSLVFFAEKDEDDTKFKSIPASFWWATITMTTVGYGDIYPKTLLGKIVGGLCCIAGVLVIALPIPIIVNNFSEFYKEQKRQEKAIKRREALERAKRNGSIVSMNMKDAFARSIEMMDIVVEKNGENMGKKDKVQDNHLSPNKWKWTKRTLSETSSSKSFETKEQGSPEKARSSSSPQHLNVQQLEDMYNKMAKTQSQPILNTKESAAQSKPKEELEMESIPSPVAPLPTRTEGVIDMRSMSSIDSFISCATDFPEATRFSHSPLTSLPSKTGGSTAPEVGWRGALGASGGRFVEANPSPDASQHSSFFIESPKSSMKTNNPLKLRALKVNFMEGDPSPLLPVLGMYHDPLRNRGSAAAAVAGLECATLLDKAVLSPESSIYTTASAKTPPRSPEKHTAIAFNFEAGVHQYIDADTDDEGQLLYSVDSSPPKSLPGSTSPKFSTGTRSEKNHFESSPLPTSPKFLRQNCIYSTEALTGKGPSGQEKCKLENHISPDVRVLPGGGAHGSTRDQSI
The note with it: cited from earlier work.

pIC50: −log10 of the molar value.

Sequence of Kv1.1 (Q09470 whole entry): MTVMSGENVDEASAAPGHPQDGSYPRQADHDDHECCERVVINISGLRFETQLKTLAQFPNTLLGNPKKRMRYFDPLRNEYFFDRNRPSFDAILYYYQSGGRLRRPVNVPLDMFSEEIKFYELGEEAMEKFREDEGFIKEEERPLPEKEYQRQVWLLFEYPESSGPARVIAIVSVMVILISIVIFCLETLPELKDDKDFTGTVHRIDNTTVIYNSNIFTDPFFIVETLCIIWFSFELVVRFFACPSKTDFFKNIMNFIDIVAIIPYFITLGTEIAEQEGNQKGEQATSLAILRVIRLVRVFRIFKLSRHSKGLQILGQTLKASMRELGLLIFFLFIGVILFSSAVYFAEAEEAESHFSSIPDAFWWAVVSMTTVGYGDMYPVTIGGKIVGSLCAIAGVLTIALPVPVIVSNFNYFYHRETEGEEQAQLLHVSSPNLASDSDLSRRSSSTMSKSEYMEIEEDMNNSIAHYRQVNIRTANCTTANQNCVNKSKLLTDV

By pIC50 is commonly meant the IC50 on a negative log10 scale, so that one unit is a factor of ten. In the case of “Agitotoxin-2 (GVPINVSCTGSPQCIKPCKDAGMRFGKCMNRKCHCTPK) [AgTx2]”, the “Mean inhibition of the maximal outward current at +60 mV” value in assay [1] turned out to be 66.5±2.9%. In addition, the negative logarithm of the IC50 (pIC50) in assay [2] was 10.36.
As for “Guangxitoxin (EGECGGFWWKCGSGKPACCPKYVCSPKWGLCNFPMP) [GxTx-1E]”, in assay [3], the “IC50, channel Kv1.2” value was “No effect”. Further, the negative-log IC50 (pIC50) in assay [4] was 8.59. Moreover, the “Inhibits the Kv2.1 channel in pancreatic β-cells” value in assay [5] is “nanomolar range”.
